Measurements published in PMC10148139.

Biological target: MAGE D2 MAGE homology domain (MHD), amino acids 261–521 (human) (UniProt Q9UNF1)
Assay: MST

Sequence of UniProt Q9UNF1 (Q9UNF1 261-521): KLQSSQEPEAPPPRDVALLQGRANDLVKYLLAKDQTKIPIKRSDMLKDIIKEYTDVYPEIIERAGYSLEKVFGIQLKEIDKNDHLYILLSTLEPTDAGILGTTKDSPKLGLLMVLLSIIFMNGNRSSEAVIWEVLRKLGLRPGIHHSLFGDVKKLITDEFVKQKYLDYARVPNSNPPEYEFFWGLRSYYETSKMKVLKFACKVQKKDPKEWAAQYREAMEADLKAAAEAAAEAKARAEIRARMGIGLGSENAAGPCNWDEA

Gαs AHD (amino acids 68–206), purified (from UniProt P63092-2 68-206) (domain or fragment)
Kd: 155 nM
